Reference: US20180230200A1 (CITY OF HOPE, published 2018)

Key:
gH of HCMV strain TB40/E = gH of HCMV strain TB40/E (human cytomegalovirus strain TB40/E); assay: cell-based or functional assay
[1] = molecular target: T1, gH/gL/UL128/UL130/UL131A pentamer complex expressed from MVA-PC in BHK-21 cells (human cytomegalovirus, UniProt P12824 24-743; P16832 31-278; P16837 28-171; P16772 1-214; F5HET4 19-129); assay: FC, biotinylated NAb titrated on MVA-PC-infected BHK-21 (cell surface PC)
T1 construct: whole, on cells

[2] = molecular target: T1, gH/gL/UL128/UL130/UL131A pentamer …; assay: FC competition, MVA-PC BHK-21; unlabelled row Ab; competitor: biotinylated 2-80; further: test concentration or dose not given here
[3] = molecular target: T1, gH/gL/UL128/UL130/UL131A pentamer …; assay: FC competition, MVA-PC BHK-21; unlabelled row Ab; competitor: biotinylated 21F6
[4] = molecular target: T1, gH/gL/UL128/UL130/UL131A pentamer …; assay: FC competition, MVA-PC BHK-21; unlabelled row Ab; competitor: biotinylated AP86; further: test concentration or dose not given here

B1: 18F10 (antibody, V domains shown)
VH: QVTLKESGPGILQPSQTLSLTCSFSGFSLSTYGIGIGWIRQPSGKGLEWLAHIWWNDNKNYNTALKSRLTISKDPSNNQVFLKIASVDTADTATYFCARTGYFDVWGAGTTVTVSS
VL: DVVLTQTPLSLPVSLGDQVSISCSSSQSLVHSNGNTYIHWYLQKPGQSPKLLIYTVSNRFSGVPDRFSGSGSGTDFTLKISRVEAEDLGLYFCSQSTHVPYTFGGGTKLEIK
notes: also called NAb 18F10
- IC50, inhibition of TB40/E cell-to-cell spread in ARPE-19 (gH of HCMV strain TB40/E): 95 µg/mL
- IC50, neutralization of TB40/E infection of ARPE-19 (gH of HCMV strain TB40/E): 0.763 µg/mL
- IC50, neutralization of TB40/E infection of CTB (gH of HCMV strain TB40/E): 8.8 µg/mL
- IC50, neutralization of TB40/E infection of HUVEC (gH of HCMV strain TB40/E): 1.49 µg/mL
- IC50, neutralization of TB40/E infection of MRC-5 (gH of HCMV strain TB40/E): > 25 µg/mL
- EC50 [1]: 6.5 nM
- Binding Inhibition (%) [2]: 0%
- Binding Inhibition (%) [3]: 0%
- Binding Inhibition (%) [4]: 100%
